The assay has as its target Aβ(1-42) fibrils 1-42 (Homo sapiens, UniProt P05067). Briefly: SPR. (Surface plasmon resonance follows binding to a sensor surface in real time, without labels.)

Kd data for 2 molecules are collected here from paper PMC4960888 (2016).

Ends that are not written are not given here.

As a reminder, the Kd is the concentration at which binding is half-saturated.

Sequence of Aβ(1-42) fibrils 1-42 (P05067 1-42): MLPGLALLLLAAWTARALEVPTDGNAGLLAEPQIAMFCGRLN

B1: AGuIX@PEG@LPFFD@Cy5.5 (peptide)
chain: LPFFD
modifications: also: conjugated to AGuIX nanoparticle via PEG, labelled with Cy5.5, attachment sites not given here
For B1, the Kd turned out to be 261 µM.
LPFFD [LPFFD peptide]: binding was characterised by a dissociation constant (Kd) of 317 µM. This Kd and that of the molecule before are within 1.5-fold of each other.
